From patent US8299210 (Sanofi, dated 2012)
Where no end group is shown, it is not given here. The star is where a group is joined. Biotin = O=C1N[C@H]2[C@H](CS[C@H]2CCCCC(=O)*)N1; AEEA = NCCOCCOCC(=O)O

B1: synthetic biotinylated peptide pp26 5 c (Seq # 197557-1) (peptide)
peptide: RSSHCRHRNCHTITRGNMRIETPNNIRKDAK(Biotin)
modifications: cysteine pairing not given here
B2: gurmarin variant # 11 (seq # 194328) (peptide)
chain: MHHHHHHSGSSSGSGCVKKDELCNWVTPMRCEPLECLGHGLGYAYCGSGSSGSS
B3: gurmarin variant # 12 (seq # 194297) (peptide)
chain: MHHHHHHSGSSSGSGCVKKDELCVFYFPNCCEPLECRWVNDNYGWCGSGSSGSS
B4: gurmarin variant # 14 (seq # 194479) (peptide)
chain: MHHHHHHSGSSSGSGCVKKDELCTTASKSCCEPLECKWTNEHFGTCGSGSSGSS
B5: gurmarin variant # 10 (seq # 194264) (peptide)
chain: MHHHHHHSGSSSGSGCVKKDELCELAVDECCEPLECFQMGHGFKRCGSGSSGSS
B6: gurmarin variant # 15 (seq # 194511) (peptide)
chain: MHHHHHHSGSSSGSGCVKKDELCSQSVPMCCEPLECKWFNENYGICGSGSSGSS
B7: gurmarin variant # 9 (seq # 194259) (peptide)
chain: MHHHHHHSGSSSGSGCVKKDELCARWDLVCCEPLECIYTSELYATCGSGSSGSS
B8: gurmarin variant # 16 (seq # 194533) (peptide)
chain: B7 chain
B9: synthetic biotinylated peptide pp26 9 n (Seq # 197588-1) (peptide)
peptide: {Biotin-AEEA}-RSNVIPLNEVWYDTGWDRPHRSRLSIDDDA
notes: also called pp26 peptide 9; pp26 clone 9
B10: PP26 variant # 5 (seq # 197557) (peptide)
chain: MGRGSHHHHHHARSSHCRHRNCHTITRGNMRIETPNNIRKDANAPKASAI
B11: PP26 variant # 6 (seq # 197596) (peptide)
chain: MGRGSHHHHHHARSTMNTNRMDIQRLMTNHVKRDSSPGSIDANAPKASAI
B12: PP26 variant # 15 (seq # 198000) (peptide)
chain: MGRGSHHHHHHARSWRDTRKLHMRHYFPLAIDSYWDHTLRDANAPKASAI
B13: PP26 variant # 14 (seq # 197825) (peptide)
chain: MGRGSHHHHHHARSWQPEVKMSSLVDTSQTVGAAVETRTTDANAPKASA
B14: synthetic biotinylated peptide gurmarin 19 n (Seq # 194737-1) (peptide)
peptide: {Biotin-AEEA}-SGCVKKDELCELAIDECCEPLECTKGDLGFRKCG
modifications: ends and bridges not checked
notes: also called gurm 19n
B15: synthetic biotinylated peptide pp26 5 n (Seq # 197557-2) (peptide)
peptide: {Biotin-AEEA}-RSSHCRHRNCHTITRGNMRIETPNNIRKDA
modifications: cysteine pairing not given here
B16: synthetic biotinylated peptide gurmarin 15 n (Seq # 194511-1) (peptide)
peptide: {Biotin-AEEA}-SGCVKKDELCSQSVPMCCEPLECKWFNENYGICGS
modifications: ends and bridges not checked
notes: also called gurm 15n; gurmarin peptide 15
B17: synthetic biotinylated peptide gurmarin 10 n (Seq # 194264-1) (peptide)
peptide: {Biotin-AEEA}-SGCVKKDELCELAVDECCEPLECFQMGHGFKRCG
modifications: ends and bridges not checked
notes: also called gurm 10n
B18: synthetic biotinylated peptide pp26 15 n (Seq # 198000-1) (peptide)
peptide: {Biotin-AEEA}-RSWRDTRKLHMRHYFPLAIDSYWDHTLRDA
notes: also called pp26 peptide 15; pp26 clone 15
B19: synthetic biotinylated peptide gurmarin 9 n (Seq # 194259-1) (peptide)
peptide: {Biotin-AEEA}-SGCVKKDELCARWDLVCCEPLECIYTSELYATCG
modifications: cysteine pairing not given here
notes: also called gurm 9n; gurmarin peptide 9

molecular target: T1, Pertussis toxin (PT) (Bordetella pertussis, UniProt P04977 35-269; P04978 28-226; P04979 29-227; P0A3R5 43-152; P04981 35-133); test: ~200 pmol peptide on streptavidin sepharose with 100 pmol purified PT, gel and silver staining
T1 construct: mature; also called purified PT; biotinylated PT

Binder	binding result
B1	binds

molecular target: T1, Pertussis toxin (PT); test: 35S-labelled, His-tag purified free peptide (TNT expressed) on biotinylated PT on streptavidin magnetic beads, scintillation counting (test 1)
Protocol: (§1) By this measure, those bated with biotinylated PT immobilized on streptavidin-magnetic beads for 1 h at RT. The beads were washed 3× with HBS-buffer and then resuspended in water and analyzed by liquid scintillation counting. In control experiments each candidate was incubated with streptavidin beads only (without PT).

Binder	binding result
B2	binds
B3	binds
B4	binds
B5	binds
B6	binds
B7	binds
B8	binds

molecular target: T1, Pertussis toxin (PT); test: BIAcore 2000, 2.5-100 nM peptide over PT amine coupled to a CM5 chip (6000 RU), HBS/EP, room temperature

Binder	Kd [nM]	koff [s⁻¹]	kon [M⁻¹ s⁻¹]
B9	7.5	0.001	130000

molecular target: T1, Pertussis toxin (PT); test: 35S-labelled, His-tag purified free peptide (TNT expressed) on biotinylated PT on streptavidin magnetic beads, scintillation counting (test 1); remark: another data set of the same source
Protocol: as §1

Binder	binding result
B10	binds
B11	binds
B12	binds
B13	binds

molecular target: T1, Pertussis toxin (PT); test: 20 pmol sepharose-immobilized peptide with 100 pmol (500 nM) PT, bound PT quantified by gel, 1:1 ratio assumed

Binder	Fraction of binding active peptide [%]
B9	> 50
B14	> 5
B15	> 5
B16	> 50
B17	> 5
B18	> 12.5
B19	> 12.5
